{"source": "patent US20250186594A1"}
{"biological_target": "His-tagged human IL-18BP (human) (UniProt O95998)", "assay": "AlphaLISA of free IL-18BP", "units": {"Kd": "nM"}}
{"substance": "IL-18 variant SEQ ID NO: 4 (E6K, C38A, K53A, C68A, M86C) (from UniProt Q14116 37-193) (ligand)", "Kd": 55.6}
{"substance": "IL-18 variant SEQ ID NO: 4 with 30 kDa PEG (E6K, C38A, K53A, C68A, M86C-30kPEG) (from UniProt Q14116 37-193) (ligand)", "Kd": 129}
{"substance": "IL-18 variant SEQ ID NO: 5 (E6K, V11I, C38A, K53A, T63A, C68A, C76A, M86C, C127A) (from UniProt Q14116 37-193) (ligand)", "Kd": 181}
{"substance": "IL-18 variant SEQ ID NO: 5 with 30 kDa PEG (E6K, V11I, C38A, K53A, T63A, C68A, C76A, C127A, M86C-30kPEG) (from UniProt Q14116 37-193) (ligand)", "Kd": 31.4}
{"substance": "IL-18 variant SEQ ID NO: 6 (E6K, V11I, C38A, K53A, T63A, C68A, C76A, D98C, C127A) (from UniProt Q14116 37-193) (ligand)", "Kd": 631}
{"substance": "IL-18 variant SEQ ID NO: 6 with 30 kDa PEG (E6K, V11I, C38A, K53A, T63A, C68A, C76A, C127A, D98C-30kPEG) (from UniProt Q14116 37-193) (ligand)", "Kd": 20.2}
{"substance": "IL-18 variant SEQ ID NO: 8 (E6K, V11I, C38A, K53A, T63A, C68A, C76A, T95C, C127A) (from UniProt Q14116 37-193) (ligand)", "Kd": 61.1}
{"substance": "IL-18 variant SEQ ID NO: 9 (E6K, C38A, K53A, C68A, D98C) (from UniProt Q14116 37-193) (ligand)", "Kd": 82.7}
{"substance": "IL-18 variant SEQ ID NO: 9 with 30 kDa PEG (E6K, C38A, K53A, C68A, D98C-30kPEG) (from UniProt Q14116 37-193) (ligand)", "Kd": 151}
{"substance": "IL-18 variant SEQ ID NO: 11 (E6K, V11I, C38A, K53A, C76A, C127A) (from UniProt Q14116 37-193) (ligand)", "Kd": 36.8}
{"substance": "IL-18 variant SEQ ID NO: 28 (E6K, C38A, K53A, T63A, C76A, C127A) (from UniProt Q14116 37-193) (ligand)", "Kd": 44.4}
{"substance": "IL-18 variant SEQ ID NO: 28 with 30 kDa PEG (E6K, C38A, K53A, T63A, C76A, C127A, C68-30kPEG) (from UniProt Q14116 37-193) (ligand)", "Kd": 40.7}
{"substance": "IL-18 variant SEQ ID NO: 59 with 10 kDa PEG (E6K, C38A, K53A, C68-10kPEG) (from UniProt Q14116 37-193) (ligand)", "Kd": 50.7}
{"substance": "IL-18 variant SEQ ID NO: 59 with 20 kDa PEG (E6K, C38A, K53A, C68-20kPEG) (from UniProt Q14116 37-193) (ligand)", "Kd": 48.5}
{"substance": "IL-18 variant SEQ ID NO: 204 (V11I, C38A, K53A, C76A, C127A) (from UniProt Q14116 37-193) (ligand)", "Kd": 8.86}
{"substance": "IL-18 variant SEQ ID NO: 205 (V11I, C38A, K53A, T63A, C76A, C127A) (from UniProt Q14116 37-193) (ligand)", "Kd": 0.66}
{"substance": "IL-18 variant SEQ ID NO: 206 (V11I, C38A, K53A, S55A, C76A, C127A) (from UniProt Q14116 37-193) (ligand)", "Kd": 9.74}
{"substance": "IL-18 variant SEQ ID NO: 207 (V11I, C38A, M51G, K53A, C76A, C127A) (from UniProt Q14116 37-193) (ligand)", "Kd": 373}
{"substance": "IL-18 variant SEQ ID NO: 208 (V11I, C38A, K53A, D54A, C76A, C127A) (from UniProt Q14116 37-193) (ligand)", "Kd": 25.8}
{"substance": "IL-18 variant SEQ ID NO: 209 (F2A, V11I, C38A, K53A, C76A, C127A) (from UniProt Q14116 37-193) (ligand)", "Kd": 57.2}
{"substance": "IL-18 variant SEQ ID NO: 210 (V11I, E31A, C38A, K53A, C76A, C127A) (from UniProt Q14116 37-193) (ligand)", "Kd": 0.64}
